As usually defined, the Kd is a measure of binding affinity in units of concentration.

The target in test [1] is HLA-B*15:01. Nature of the test: IEDB peptide-MHC binding, purified MHC/competitive/radioactivity; filed as Kd, often an IC50 or EC50 that approximates it; ≥ and ≤ were set here for values at or beyond the usual limits of such assays.
In test [2] the target is HLA-B*35:01. The description is as above.
The target of test [3] is HLA-B*51:01. The description is as above.
Test [4] concerns the target HLA-B*07:02. The description is as above.
In test [5] the target is HLA-B*54:01. Described as above.
The target in test [6] is HLA-B*53:01. Described as above.
Test [7] addresses HLA-B*27:03. Briefly: IEDB peptide-MHC binding, purified MHC/competitive/fluorescence; filed as Kd, often an IC50 or EC50 that approximates it; ≥ and ≤ were set here for values at or beyond the usual limits of such assays. The note with it: source organism: Pan troglodytes.
For test [8], the target named is HLA-A*02:01. The description is as above. The note with it: source organism: Pan troglodytes.
Test [9] addresses HLA-B*07:02. Briefly: IEDB peptide-MHC binding, purified MHC/direct/fluorescence; filed as Kd, often an IC50 or EC50 that approximates it; ≥ and ≤ were set here for values at or beyond the usual limits of such assays.
The target in test [10] is HLA-A*26:01. Described as above.
In test [11] the target is HLA-A*03:01. Described as above.
Test [12] has as its target HLA-A*31:01. The description is as above. The settings on record: source organism: Pseudomonas aeruginosa UCBPP-PA14.
The target in test [13] is HLA-A*11:01. The test is described as above.
In test [14] the target is HLA-B*08:01. The description is as above.
Test [15] addresses HLA-B*27:05. Described as above.
In test [16] the target is HLA-A*02:01. The description is as above.
The target in test [17] is HLA-B*15:01. Described as above.
Test [18] addresses HLA-A*01:01. The test is described as above.
In test [19] the target is HLA-B*58:01. The test is described as above.
The target of test [20] is HLA-A*69:01. Described as above.
Test [21] addresses HLA-B*46:01. Described as above.
Test [22] concerns the target HLA-B*40:01. The description is as above. The note with it: source organism: Giardia lamblia ATCC 50803.
In test [23] the target is HLA-A*30:02. Nature of the test: IEDB peptide-MHC binding, purified MHC/competitive/radioactivity; filed as Kd, often an IC50 or EC50 that approximates it; ≥ and ≤ were set here for values at or beyond the usual limits of such assays. The note with it: source organism: Dengue virus 3 Martinique/1243/1999.
Test [24] deals with HLA-A*02:06. The test is described as above. The note with it: source organism: Dengue virus 2 Jamaica/1409/1983.
Where [25] appears, read: source organism: Vaccinia virus WR.
[26] abbreviates: source organism: Vaccinia virus Copenhagen.
[27] abbreviates: source organism: Triticum aestivum.
Setting [28] is: source organism: Pseudomonas aeruginosa UCBPP-PA14.
Setting [29] is: source organism: Mammarenavirus lassaense.
Setting [30] is: source organism: SARS coronavirus Tor2.
Setting [31] is: source organism: Giardia lamblia ATCC 50803.
[32] abbreviates: source organism: Mammarenavirus guanaritoense.

With LIIYYQLAG, the Kd in [1] (setting [25]) was determined as 1.29 µM.
As to LISIRILYY, the Kd in test [1] (setting [26]) came out at 0.144 µM.
As to FPQHVITKDV, the Kd in test [2] (setting [25]) worked out at 0.153 µM; in [3] (setting [25]), 0.0662 µM; in test [4] (setting [25]), 0.0573 µM; in test [5] (setting [25]), 0.00046 µM; in test [6] (setting [25]), 0.0162 µM.
Take LVHQVFGTAY: in test [1] (source organism: Dengue virus 1 Brazil/97-11/1997), the Kd worked out at 0.00715 µM.
As for RVLTARKTV, the Kd is at least 20 µM in test [7], at least 20 µM in [8] and 0.417 µM in test [9] (source organism: Ovis aries).
Turning to NPIINTHSF, the Kd in [2] (setting [25]) is 0.000188 µM; in [3] (setting [25]), at least 27.1 µM; in test [4] (setting [25]), 0.003 µM; in test [5] (setting [25]), 9.62 µM; in test [6] (setting [25]), 0.000178 µM.
As for FPQPQLPY, the Kd in [2] (setting [27]) was 0.244 µM; in test [3] (setting [27]), 0.0204 µM; in test [4] (setting [27]), 14.1 µM; in [5] (setting [27]), at least 87.7 µM; in test [6] (setting [27]) it was 1.04 µM.
On the same counts, the results for QPLQQYPL are at least 36.1 µM, 1.45 µM, 8.45 µM, at least 87.7 µM and at least 22.4 µM.
ANPGRVKDW: the Kd in test [10] (setting [28]), in test [11] (setting [28]), in test [12], in test [9] (setting [28]), in [13] (setting [28]) and in test [14] (setting [28]) was at least 20 µM in each case. The Kd in test [15] (setting [28]), in [16] (setting [28]), in test [17] (setting [28]), in test [18] (setting [28]), in test [19] (setting [28]) and in test [20] (setting [28]) was at least 20 µM throughout.
Take NPSILPSLI: the Kd in [2] (setting [25]) was 1.12 µM; in [3] (setting [25]), 0.304 µM; in [4] (setting [25]), 0.287 µM; in test [5] (setting [25]), at least 73.4 µM; in test [6] (setting [25]), 0.00555 µM.
For LYQPSSGCY, the Kd in test [21] (setting [29]) was at least 20 µM; in [17] (setting [29]), 1.07 µM.
On to RPKQRRPQGL, for which the Kd in [2] (setting [30]) is at least 69.9 µM; in test [3] (setting [30]), at least 69.6 µM; in test [4] (setting [30]), 0.308 µM; in test [5] (setting [30]), at least 69.9 µM; in [6] (setting [30]) it was at least 69.9 µM.
As for ISIKVKNHI, in test [1] (setting [25]), the Kd stood at 5.6 µM.
With LSCSVCNSL, the Kd in test [1] (setting [25]) was determined as 0.386 µM.
Regarding YTDDYPMYK, the Kd is at least 20 µM in test [10] (setting [31]); at least 20 µM in test [22]; 0.359 µM in test [11] (setting [31]); at least 20 µM in test [9] (setting [31]); 0.04 µM in test [13] (setting [31]); at least 20 µM in test [14] (setting [31]). In addition, the equilibrium dissociation constant (Kd) was at least 20 µM in test [15] (setting [31]); at least 20 µM in test [16] (setting [31]); at least 20 µM in test [17] (setting [31]); 0.0189 µM in test [18] (setting [31]); at least 20 µM in [19] (setting [31]); 0.127 µM in test [20] (setting [31]).
HPRHYATIM: the Kd worked out at 0.153 µM in [2] (source organism: Variola virus); 19.1 µM in [3] (source organism: Variola virus); 0.00156 µM in [4] (source organism: Variola virus); 18.2 µM in [5] (source organism: Variola virus); 17.2 µM in [6] (source organism: Variola virus).
Take RMNVFNGHL: the Kd in test [1] (setting [26]) turned out to be 0.028 µM.
In [21] (source organism: West Nile virus), AMFEEQNQW gave a Kd of at least 20 µM.
Take WPWYVWLGFI: the Kd was at least 69.9 µM in test [2] (setting [30]); 11.1 µM in test [3] (setting [30]); at least 51.8 µM in test [4] (setting [30]); 15.5 µM in [5] (setting [30]); 4.57 µM in [6] (setting [30]).
On the same counts, the results for GPLVRKIFV are 6.07 µM, at least 22.5 µM, 1.38 µM, 18 µM and 11.9 µM.
The matching figures for GPKVKYLYF: at least 52 µM, 13.6 µM, 15.8 µM, 10.4 µM and at least 41 µM.
In the case of QSKSSLLHA, in test [1] (setting [25]), the Kd was 0.405 µM.
In the case of ILALFLAHY, the Kd came out at 9.83 µM in [23] and 0.0538 µM in test [1] (source organism: Dengue virus 3 Martinique/1243/1999).
As for RPDTRYVLM, the Kd in [2] (setting [30]) turned out to be 1.99 µM; in test [3] (setting [30]), 0.908 µM; in test [4] (setting [30]), 0.0154 µM; in test [5] (setting [30]), 1.58 µM; in [6] (setting [30]) it was 4.85 µM.
Turning to YIILFILFF, the Kd in [1] (setting [25]) is 5.24 µM.
As to LPNDRVLDI, the Kd turned out to be 2.69 µM in [2] (setting [32]); 0.539 µM in test [3] (setting [32]); 7.27 µM in [4] (setting [32]); 13.1 µM in test [5] (setting [32]); 0.258 µM in test [6] (setting [32]).
For AQMWTLMYF, the Kd was determined as 0.00275 µM in test [24] and 0.000725 µM in test [1] (source organism: Dengue virus 2 Jamaica/1409/1983).
NIAFLDESF: the Kd in test [1] (setting [25]) amounted to 0.822 µM.
Take HPDFCKNRRY: the Kd in test [2] (setting [25]) is 2.21 µM; in test [3] (setting [25]) it was at least 69.6 µM; in test [4] (setting [25]), at least 69.6 µM; in test [5] (setting [25]), at least 49.3 µM; in test [6] (setting [25]), 1.14 µM.
With LPPKSSIDAF, the Kd in test [2] (setting [30]) was 1.11 µM; in [3] (setting [30]) it was 3.49 µM; in test [4] (setting [30]), 3.09 µM; in test [5] (setting [30]), at least 31.9 µM; in [6] (setting [30]) it was 11.1 µM.
In the case of MSRGYFEHM, in test [1] (setting [25]), the Kd amounted to 0.0308 µM.
LPLTSLVITY: the equilibrium dissociation constant (Kd) in [2] (setting [25]) was determined as 0.00835 µM; in test [3] (setting [25]), 16.5 µM; in [4] (setting [25]), 7.29 µM; in [5] (setting [25]), 2.7 µM; in test [6] (setting [25]), 0.0127 µM.
Regarding TPIFSDLLKY, the Kd is 12.7 µM in test [2] (setting [25]); at least 44.8 µM in [3] (setting [25]); 0.00346 µM in [4] (setting [25]); 12.8 µM in test [5] (setting [25]); 3.61 µM in test [6] (setting [25]).
The matching figures for EPLSPDTCL: 0.522 µM, 0.211 µM, 10.5 µM, at least 78.1 µM and 0.189 µM.
On to SPLTLLIKTL, for which the Kd was at least 69.9 µM in test [2] (setting [25]); at least 57.3 µM in test [3] (setting [25]); 1.12 µM in test [4] (setting [25]); at least 69.9 µM in [5] (setting [25]); at least 30 µM in test [6] (setting [25]).

These data come from the Immune Epitope Database (IEDB).
